According to patent publication US20240124607A1:

Target: human CEACAM5 on cells (human) (UniProt P06731)
Test: flow cytometry, hCEACAM5-B16F10 cells

Sequence of human CEACAM5 on cells (human) (P06731 35-685 limits assumed): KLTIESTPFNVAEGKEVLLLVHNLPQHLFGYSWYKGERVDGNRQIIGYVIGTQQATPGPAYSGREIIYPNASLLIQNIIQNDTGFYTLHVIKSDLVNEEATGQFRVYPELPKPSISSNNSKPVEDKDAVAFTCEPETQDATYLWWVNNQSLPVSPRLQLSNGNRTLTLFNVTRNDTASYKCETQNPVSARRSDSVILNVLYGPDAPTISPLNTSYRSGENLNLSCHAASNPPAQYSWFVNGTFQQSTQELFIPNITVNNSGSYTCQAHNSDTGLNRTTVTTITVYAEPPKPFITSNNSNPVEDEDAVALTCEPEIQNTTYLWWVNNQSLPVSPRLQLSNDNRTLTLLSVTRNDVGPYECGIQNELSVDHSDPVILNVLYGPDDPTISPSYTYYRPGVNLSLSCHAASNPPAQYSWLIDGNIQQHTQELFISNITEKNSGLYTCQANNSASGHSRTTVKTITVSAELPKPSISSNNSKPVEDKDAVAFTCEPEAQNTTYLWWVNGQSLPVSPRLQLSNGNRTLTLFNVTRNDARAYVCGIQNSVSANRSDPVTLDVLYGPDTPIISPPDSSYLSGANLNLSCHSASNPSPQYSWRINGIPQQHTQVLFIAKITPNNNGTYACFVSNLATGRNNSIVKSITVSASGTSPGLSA

EC50: 21.8 nM
B1: mAB0621 mouse surrogate duobody TriNKET (bispecific antibody, part only; not given: NKG2D arm, mouse constant regions, V domains shown, part only)
VH: QVQLVQSGAEVKKPGASVKVSCKASGYTFTAYTIHWVRQAPGQCLEWMGYINPSSGYTEYNQKFKDRTTLTADTSISTAYMELSRLRSDDTAVYYCTREGGLLWFDYWGQGTLVTVSS
VL: DIVMTQSPDSLAVSLGERATINCKSSHSLLYGNFQNNYLAWYQQKPGQPPKLLIYWASTRESGVPDRFSGSGSGTDFTLTISSLQAEDVAVYYCQQYYSYPYTFGCGTKLEIK
